Laboratory results taken from PMC9917171, “Yet Another Similarity between Mitochondrial and Bacterial Ribosomal Small Subunit Biogenesis Obtained by Structural Characterization of RbfA from S. aureus” (International Journal of Molecular Sciences, 2023).

Biological target: ribosomal binding factor A (RbfA) from Staphylococcus aureus, histidine tag at the N-terminus (S. aureus, UniProt A5ISF4 1-116)
Experiment: cryo-EM structure; 30S-RbfA complex reconstituted by mixing mature S. aureus 30S subunits and recombinant RbfA (1:30); overall resolution 2.9 Å
Settings: both partners purified

B1: ribosomal protein S7 of the S. aureus 30S subunit (natural protein)
chain: MPRKGSVPKRDVLPDPIHNSKLVTKLINKIMLDGKRGTAQRILYSAFDLVEQRSGRDALEVFEEAINNIMPVLEVKARRVGGSNYQVPVEVRPERRTTLGLRWLVNYARLRGEKTMEDRLANEILDAANNTGGAVKKREDTHKMAEANKAFAHYRW
notes: 30S ribosomal protein S7, S. aureus RN6390; model built from the published S. aureus 30S (PDB 5ND8); Stood in the assay as part of the whole 30S subunit (16S rRNA and the other small subunit proteins; S21 and S1 not seen in the density); also called S7 head protein; source: endogenous, within 30S subunits obtained by dissociation of 70S ribosomes purified from S. aureus RN6390
- binding result: binds
